B1: NR4a3: NR4a3 (NR4A3; NOR1), nuclear hormone receptor cDNA driver (protein, UniProt Q92570 1-626, looked up)
Nuclear receptor subfamily 4 …: MPCVQAQYSPSPPGSSYAAQTYSSEYTTEIMNPDYTKLTMDLGSTEITATATTSLPSISTFVEGYSSNYELKPSCVYQMQRPLIKVEEGRAPSYHHHHHHHHHHHHHHQQQHQQPSIPPASSPEDEVLPSTSMYFKQSPPSTPTTPAFPPQAGALWDEALPSAPGCIAPGPLLDPPMKAVPTVAGARFPLFHFKPSPPHPPAPSPAGGHHLGYDPTAAAALSLPLGAAAAAGSQAAALESHPYGLPLAKRAAPLAFPPLGLTPSPTASSLLGESPSLPSPPSRSSSSGEGTCAVCGDNAACQHYGVRTCEGCKGFFKRTVQKNAKYVCLANKNCPVDKRRRNRCQYCRFQKCLSVGMVKEVVRTDSLKGRRGRLPSKPKSPLQQEPSQPSPPSPPICMMNALVRALTDSTPRDLDYSRYCPTDQAAAGTDAEHVQQFYNLLTASIDVSRSWAEKIPGFTDLPKEDQTLLIESAFLELFVLRLSIRSNTAEDKFVFCNGLVLHRLQCLRGFGEWLDSIKDFSLNLQSLNLDIQALACLSALSMITERHGLKEPKRVEELCNKITSSLKDHQSKGQALEPTESKVLGALVELRKICTLGLQRIFYLKLEDLVSPPSIIDKLFLDTLPF
B2: PR: Progesterone Receptor (NR3C3), cDNA driver (protein, UniProt P06401 1-933, looked up)
Progesterone receptor: MTELKAKGPRAPHVAGGPPSPEVGSPLLCRPAAGPFPGSQTSDTLPEVSAIPISLDGLLFPRPCQGQDPSDEKTQDQQSLSDVEGAYSRAEATRGAGGSSSSPPEKDSGLLDSVLDTLLAPSGPGQSQPSPPACEVTSSWCLFGPELPEDPPAAPATQRVLSPLMSRSGCKVGDSSGTAAAHKVLPRGLSPARQLLLPASESPHWSGAPVKPSPQAAAVEVEEEDGSESEESAGPLLKGKPRALGGAAAGGGAAAVPPGAAAGGVALVPKEDSRFSAPRVALVEQDAPMAPGRSPLATTVMDFIHVPILPLNHALLAARTRQLLEDESYDGGAGAASAFAPPRSSPCASSTPVAVGDFPDCAYPPDAEPKDDAYPLYSDFQPPALKIKEEEEGAEASARSPRSYLVAGANPAAFPDFPLGPPPPLPPRATPSRPGEAAVTAAPASASVSSASSSGSTLECILYKAEGAPPQQGPFAPPPCKAPGASGCLLPRDGLPSTSASAAAAGAAPALYPALGLNGLPQLGYQAAVLKEGLPQVYPPYLNYLRPDSEASQSPQYSFESLPQKICLICGDEASGCHYGVLTCGSCKVFFKRAMEGQHNYLCAGRNDCIVDKIRRKNCPACRLRKCCQAGMVLGGRKFKKFNKVRVVRALDAVALPQPVGVPNESQALSQRFTFSPGQDIQLIPPLINLLMSIEPDVIYAGHDNTKPDTSSSLLTSLNQLGERQLLSVVKWSKSLPGFRNLHIDDQITLIQYSWMSLMVFGLGWRSYKHVSGQMLYFAPDLILNEQRMKESSFYSLCLTMWQIPQEFVKLQVSQEEFLCMKVLLLLNTIPLEGLRSQTQFEEMRSSYIRELIKAIGLRQKGVVSSSQRFYQLTKLLDNLHDLVKQLHLYCLNTFIQSRALSVEFPEMMSEVIAAQLPKILAGMVKPLLFHKK
B3: NR4a2: NR4a2 (NR4A2; NURR1), nuclear hormone receptor cDNA driver (protein, UniProt P43354 1-598, looked up)
Nuclear receptor subfamily 4 …: MPCVQAQYGSSPQGASPASQSYSYHSSGEYSSDFLTPEFVKFSMDLTNTEITATTSLPSFSTFMDNYSTGYDVKPPCLYQMPLSGQQSSIKVEDIQMHNYQQHSHLPPQSEEMMPHSGSVYYKPSSPPTPTTPGFQVQHSPMWDDPGSLHNFHQNYVATTHMIEQRKTPVSRLSLFSFKQSPPGTPVSSCQMRFDGPLHVPMNPEPAGSHHVVDGQTFAVPNPIRKPASMGFPGLQIGHASQLLDTQVPSPPSRGSPSNEGLCAVCGDNAACQHYGVRTCEGCKGFFKRTVQKNAKYVCLANKNCPVDKRRRNRCQYCRFQKCLAVGMVKEVVRTDSLKGRRGRLPSKPKSPQEPSPPSPPVSLISALVRAHVDSNPAMTSLDYSRFQANPDYQMSGDDTQHIQQFYDLLTGSMEIIRGWAEKIPGFADLPKADQDLLFESAFLELFVLRLAYRSNPVEGKLIFCNGVVLHRLQCVRGFGEWIDSIVEFSSNLQNMNIDISAFSCIAALAMVTERHGLKEPKRVEELQNKIVNCLKDHVTFNNGGLNRPNYLSKLLGKLPELRTLCTQGLQRIFYLKLEDLVPPPAIIDKLFLDTLPF
B4: GCNF: Germ Cell Nuclear Factor (NR6A1, GCNF1), cDNA driver (protein, UniProt Q15406 1-480, looked up)
Nuclear receptor subfamily 6 …: MERDEPPPSGGGGGGGSAGFLEPPAALPPPPRNGFCQDELAELDPGTISVSDDRAEQRTCLICGDRATGLHYGIISCEGCKGFFKRSICNKRVYRCSRDKNCVMSRKQRNRCQYCRLLKCLQMGMNRKAIREDGMPGGRNKSIGPVQISEEEIERIMSGQEFEEEANHWSNHGDSDHSSPGNRASESNQPSPGSTLSSSRSVELNGFMAFREQYMGMSVPPHYQYIPHLFSYSGHSPLLPQQARSLDPQSYSLIHQLLSAEDLEPLGTPMLIEDGYAVTQAELFALLCRLADELLFRQIAWIKKLPFFCELSIKDYTCLLSSTWQELILLSSLTVYSKQIFGELADVTAKYSPSDEELHRFSDEGMEVIERLIYLYHKFHQLKVSNEEYACMKAINFLNQDIRGLTSASQLEQLNKRYWYICQDFTEYKYTHQPNRFPDLMMCLPEIRYIAGKMVNVPLEQLPLLFKVVLHSCKTSVGKE

test system: mABCA1 promoter; test: NHR-promoter luciferase screen, mABCA1 promoter; format: cell-based, mouse; settings: ABCA1 promoter; hormone receptor with or without its ligand
Summary of the method: (§1)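 CV-1 cells were co-transfected with 50 ng NHR (homodimer or NHR/RXR heterodimer), 100 ng promoter-luciferase construct and 50 ng LacZ. Luciferase was normalized to LacZ and to a no-NHR/no-ligand control.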

Molecule	Luc. act., normalized to lacZ
B1	6.8
B2	8.9
B3	6.2
B4	7.6

same assay, conditions: ABCA1 promoter; hormone receptor with or without its ligand; relative to control

Molecule	Normalized Luc. act., normalized to control
B1	1.2
B2	1.6
B3	1.1
B4	1.4

same assay, conditions: transcription factor +/- ligand; control = 1.00

Molecule	mABCA1 promoter reporter activity
B1	1.21
B2	1.58
B3	1.11
B4	1.36

test system: MCP-1 promoter; test: NHR-promoter luciferase screen, MCP-1 promoter; format: cell-based; settings: MCP-1 promoter reporter; HR without or with its ligand; relative to control
Summary of the method: as §1

Molecule	Normalized Luc. act., normalized to control
B1	0.5
B2	1.2
B3	0.6
B4	0.0

same assay, conditions: MCP-1 promoter reporter; hormone receptor (HR) without or with its ligand

Molecule	Luc. act., normalized to lacZ
B1	51.9
B2	128.0
B3	58.9

same assay, conditions: transcription factor +/- ligand; control = 1.00

Molecule	mMCP-1 promoter reporter activity
B1	0.48
B2	1.20
B3	0.55
B4	0.00

test system: mDio1 promoter; test: NHR-promoter luciferase screen, mDio1 promoter; format: cell-based, mouse; settings: Dio1; HR component without or with its ligand
Summary of the method: as §1

Molecule	Luc. act., normalized to lacZ	Normalized Luc. act., normalized to control
B1	6.6	1.5
B2	7.8	1.8
B3	6.3	1.4
B4	5.1	1.1

same assay, conditions: transcription factor +/- ligand; control = 1.00

Molecule	mDio1 promoter reporter activity
B1	1.48
B2	1.75
B3	1.41
B4	1.13

test system: mPgc1b promoter; test: NHR-promoter luciferase screen, mPgc1b promoter; format: cell-based, mouse; settings: PGC1b promoter reporter; co-transfected HR, without or with its ligand
Summary of the method: (§2)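 CV-1 cells co-transfected with NHR homodimer or NHR/RXR heterodimer (pcDNA3.1, C-terminal V5H6 tag), promoter-luciferase construct and LacZ transfection control. Orphan receptors screened without ligand. Luciferase normalized to LacZ and to no-NHR/no-ligand control.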

Molecule	Luc. act., normalized to lacZ
B1	9.2
B2	8.9
B3	9.0
B4	11.7

same assay, conditions: PGC1b promoter reporter; co-transfected HR, without or with its ligand; relative to control

Molecule	Normalized Luc. act., normalized to control
B1	0.8
B2	0.7
B3	0.8
B4	1.0

same assay, conditions: mPgc1b promoter-luciferase, CV-1 cells, NHR +/- ligand, control = 1.00

Molecule	luciferase activity normalized to lacZ activity and to a control, mPgc1b
B1	0.77
B2	0.75
B3	0.76
B4	0.99

test system: mDio2 promoter; test: NHR-promoter luciferase screen, mDio2 promoter; format: cell-based, mouse; settings: Dio2; HR component without or with its ligand
Summary of the method: as §1

Molecule	Luc. act., normalized to lacZ	Normalized Luc. act., normalized to control
B1	14.8	0.9
B2	21.4	1.4
B3	12.4	0.8
B4	22.7	1.4

same assay, conditions: transcription factor +/- ligand; control = 1.00

Molecule	mDio2 promoter reporter activity
B1	0.94
B2	1.36
B3	0.79
B4	1.44

test system: hCYP3A4 promoter; test: NHR-promoter luciferase screen, hCYP3A4 promoter; format: cell-based, human; settings: CYP3A4 promoter; HR/ligand component
Summary of the method: as §2

Molecule	Luc. act., normalized to lacZ	Normalized Luc. act., normalized to control
B1	4.2	0.9
B2	6.5	1.5
B3	3.5	0.8
B4	4.5	1.0

same assay, conditions: transcription factor +/- ligand; control = 1.00

Molecule	hCYP3A4 promoter reporter activity
B1	0.93
B2	1.47
B3	0.79
B4	1.02

Reference: patent publication US20110263454A1, “Methods of Identifying Functional Characteristics of Promoters, Transcription Modifying Proteins and Transcription Modulating Agents” (Salk Institute for Biological Studies, priority 2008, published 2011)
